Among the data in the supplement of paper PMC10567573 are protein stability index values, retold here.

B1: BRF1 (parent)
chain: FVESSGGGSSAVGQFVSLDGAGKT
B2: KLHL12 (parent)
chain: SMTTPRCYVGATVLRGRLYAIAGY
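Further: lentivirally expressed fusions sorted by FACS into six bins by GFP to DsRed ratio, PSI derived from sequencing read proportions per bin multiplied by bin number.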

The variants in one series derive from B1. As to the kind of experiment: protein stability index of a GFP-peptide fusion (GPS, HEK-293T) (PSI 1-6); higher = more stable. The conditions noted are these: c terminus: a fixed tail appended.
In the case of GVESSGGGSSAVGQFVSLDGAGKT [F1G], the protein stability index was found to be 5.26.
In the case of RVESSGGGSSAVGQFVSLDGAGKT [F1R], the protein stability index came to 5.
The same measure, in the same setting: under DVESSGGGSSAVGQFVSLDGAGKT [F1D] stands 5.32.
On the same count and under the same terms, under FVESSGGGISAVGQFVSLDGAGKT [S9I] stands 2.39.
On the same count and under the same terms, the same measure for FVESSGGGQSAVGQFVSLDGAGKT [S9Q]: 2.22.
As for FVESSGGGNSAVGQFVSLDGAGKT [S9N], the protein stability index was found to be 2.38.
Same read-out and setting: the same measure for FVESSGGGKSAVGQFVSLDGAGKT [S9K]: 1.72; for FVESSGGGYSAVGQFVSLDGAGKT [S9Y]: 2.82.
For the variant FVESSGGGHSAVGQFVSLDGAGKT [S9H], the protein stability index worked out at 2.17.
Still for that read-out and setting: the same measure for FVESSGGGDSAVGQFVSLDGAGKT [S9D]: 3.03; for FVESSGGGPSAVGQFVSLDGAGKT [S9P]: 1.5.
Consider FVESSGGGESAVGQFVSLDGAGKT [S9E], for which the protein stability index is 3.38.
Still for that read-out and setting: the same measure for FVESSGGGMSAVGQFVSLDGAGKT [S9M]: 1.99.
The same measure, in the same setting: under FVESSGGGCSAVGQFVSLDGAGKT [S9C] stands 2.22; under FVESSGGGRSAVGQFVSLDGAGKT [S9R], 1.68; under FVESSGGGGSAVGQFVSLDGAGKT [S9G], 2.36.
Still for that read-out and setting: the same measure for FVESSGGGTSAVGQFVSLDGAGKT [S9T]: 2.29; for FVESSGGGVSAVGQFVSLDGAGKT [S9V]: 2.58.
Consider FVESSGGGWSAVGQFVSLDGAGKT [S9W], for which the protein stability index is 2.93.
Still for that read-out and setting: under FVESSGGGASAVGQFVSLDGAGKT [S9A] stands 2.2; under FVESSGGGFSAVGQFVSLDGAGKT [S9F], 1.49; under FVESSGGGLSAVGQFVSLDGAGKT [S9L], 1.77.
As for FVESCGGGSSAVGQFVSLDGAGKT [S5C], the protein stability index stood at 2.03.
Still for that read-out and setting: the same measure for FVESIGGGSSAVGQFVSLDGAGKT [S5I]: 2.24; for FVESYGGGSSAVGQFVSLDGAGKT [S5Y]: 1.53.
Still for that read-out and setting: the same measure for FVESEGGGSSAVGQFVSLDGAGKT [S5E]: 3.68.
Same read-out and setting: under FVESVGGGSSAVGQFVSLDGAGKT [S5V] stands 1.75; under FVESTGGGSSAVGQFVSLDGAGKT [S5T], 2.62; under FVESDGGGSSAVGQFVSLDGAGKT [S5D], 3.37.
FVESKGGGSSAVGQFVSLDGAGKT [S5K]: the protein stability index turned out to be 2.58.
The same measure, in the same setting: under FVESHGGGSSAVGQFVSLDGAGKT [S5H] stands 1.81.
Still for that read-out and setting: under FVESQGGGSSAVGQFVSLDGAGKT [S5Q] stands 2.71; under FVESRGGGSSAVGQFVSLDGAGKT [S5R], 1.92; under FVESFGGGSSAVGQFVSLDGAGKT [S5F], 3.
Still for that read-out and setting: the same measure for FVESNGGGSSAVGQFVSLDGAGKT [S5N]: 2.65.
Turning to FVESMGGGSSAVGQFVSLDGAGKT [S5M], the protein stability index turned out to be 1.75.
As to FVESGGGGSSAVGQFVSLDGAGKT [S5G], the protein stability index came out at 2.19.
Still for that read-out and setting: the same measure for FVESAGGGSSAVGQFVSLDGAGKT [S5A]: 2.57; for FVESLGGGSSAVGQFVSLDGAGKT [S5L]: 1.36; for FVESPGGGSSAVGQFVSLDGAGKT [S5P]: 2.01.
Still for that read-out and setting: under FVESSGGSSSAVGQFVSLDGAGKT [G8S] stands 2.06.
On the same count and under the same terms, the same measure for FVESSGGLSSAVGQFVSLDGAGKT [G8L]: 2.06.
FVESSGGFSSAVGQFVSLDGAGKT [G8F]: the protein stability index stood at 1.69.
Same read-out and setting: the same measure for FVESSGGRSSAVGQFVSLDGAGKT [G8R]: 1.32; for FVESSGGPSSAVGQFVSLDGAGKT [G8P]: 2.08.
On the same count and under the same terms, under FVESSGGISSAVGQFVSLDGAGKT [G8I] stands 1.84.
Turning to FVESSGGCSSAVGQFVSLDGAGKT [G8C], the protein stability index was 1.95.
The same measure, in the same setting: the same measure for FVESSGGHSSAVGQFVSLDGAGKT [G8H]: 1.51.
For the variant FVESSGGKSSAVGQFVSLDGAGKT [G8K], the protein stability index was 2.89.
Same read-out and setting: the same measure for FVESSGGDSSAVGQFVSLDGAGKT [G8D]: 2.44; for FVESSGGQSSAVGQFVSLDGAGKT [G8Q]: 3.27.
Same read-out and setting: the same measure for FVESSGGTSSAVGQFVSLDGAGKT [G8T]: 2.52; for FVESSGGVSSAVGQFVSLDGAGKT [G8V]: 1.95; for FVESSGGNSSAVGQFVSLDGAGKT [G8N]: 2.12.
FVESSGGYSSAVGQFVSLDGAGKT [G8Y]: the protein stability index was 2.46.
The same measure, in the same setting: under FVESSGGESSAVGQFVSLDGAGKT [G8E] stands 3.31; under FVESSGGMSSAVGQFVSLDGAGKT [G8M], 1.71; under FVESSGGASSAVGQFVSLDGAGKT [G8A], 2.36.
Still for that read-out and setting: the same measure for FVEQSGGGSSAVGQFVSLDGAGKT [S4Q]: 2.72; for FVEMSGGGSSAVGQFVSLDGAGKT [S4M]: 1.08.
Still for that read-out and setting: the same measure for FVENSGGGSSAVGQFVSLDGAGKT [S4N]: 2.62; for FVEWSGGGSSAVGQFVSLDGAGKT [S4W]: 2.63.
Consider FVEKSGGGSSAVGQFVSLDGAGKT [S4K], for which the protein stability index was 2.63.
On to FVECSGGGSSAVGQFVSLDGAGKT [S4C], for which the protein stability index was 3.2.
FVEASGGGSSAVGQFVSLDGAGKT [S4A]: the protein stability index stood at 1.97.
For the variant FVEGSGGGSSAVGQFVSLDGAGKT [S4G], the protein stability index stood at 2.81.
Same read-out and setting: under FVEDSGGGSSAVGQFVSLDGAGKT [S4D] stands 2.49; under FVELSGGGSSAVGQFVSLDGAGKT [S4L], 1.51; under FVETSGGGSSAVGQFVSLDGAGKT [S4T], 2.29.
The same measure, in the same setting: the same measure for FVERSGGGSSAVGQFVSLDGAGKT [S4R]: 2.42; for FVEISGGGSSAVGQFVSLDGAGKT [S4I]: 1.86.
On the same count and under the same terms, under FVEESGGGSSAVGQFVSLDGAGKT [S4E] stands 3.28.
Regarding FVEFSGGGSSAVGQFVSLDGAGKT [S4F], the protein stability index worked out at 2.01.
The same measure, in the same setting: the same measure for FVEPSGGGSSAVGQFVSLDGAGKT [S4P]: 2.67; for FVEYSGGGSSAVGQFVSLDGAGKT [S4Y]: 1.3.
Regarding FVEVSGGGSSAVGQFVSLDGAGKT [S4V], the protein stability index was found to be 2.54.
On the same count and under the same terms, the same measure for FVEHSGGGSSAVGQFVSLDGAGKT [S4H]: 2.57; for FVVSSGGGSSAVGQFVSLDGAGKT [E3V]: 3.03; for FVWSSGGGSSAVGQFVSLDGAGKT [E3W]: 3.35.
Same read-out and setting: the same measure for FVISSGGGSSAVGQFVSLDGAGKT [E3I]: 2.62; for FVCSSGGGSSAVGQFVSLDGAGKT [E3C]: 1.88; for FVDSSGGGSSAVGQFVSLDGAGKT [E3D]: 1.97.
On the same count and under the same terms, the same measure for FVLSSGGGSSAVGQFVSLDGAGKT [E3L]: 1.17.
As for FVNSSGGGSSAVGQFVSLDGAGKT [E3N], the protein stability index is 1.75.
On to FVRSSGGGSSAVGQFVSLDGAGKT [E3R], for which the protein stability index was 3.14.
Regarding FVQSSGGGSSAVGQFVSLDGAGKT [E3Q], the protein stability index turned out to be 1.78.
On the same count and under the same terms, the same measure for FVMSSGGGSSAVGQFVSLDGAGKT [E3M]: 2.71; for FVTSSGGGSSAVGQFVSLDGAGKT [E3T]: 1.43; for FVHSSGGGSSAVGQFVSLDGAGKT [E3H]: 2.01.
Same read-out and setting: under FVSSSGGGSSAVGQFVSLDGAGKT [E3S] stands 1.33.

In another series the parent is B2. The description is as above. The conditions noted are these: c terminus: a fixed tail appended.
With SMTTPRAYVGATVLRGRLYAIAGY [C7A], the protein stability index was 1.32.
Still for that read-out and setting: under SMTTPGCYVGATVLRGRLYAIAGY [R6G] stands 1.27; under SMTTPRCYVGATVLRGRLYKIAGY [A20K], 3.06.
Consider SMTTPRCTVGATVLRGRLYAIAGY [Y8T], for which the protein stability index was determined as 2.12.
